B1: Atg40^234–252 peptide [S. cerevisiae] / Atg8 (1-116) K26P [S. cerevisiae] (parent complex)
chain 1: TSTEFPNDYDFMEDILDET
chain 2: MKSTFKSEYPFEKRKAESERIADRFPNRIPVICEKAEKSDIPEIDKRKYLVPADLTVGQFVYVIRKRIMLPPEKAIFIFVNDTLPPTAALMSAIYQEHKDKDGFLYVTYSGENTFG

The variants in the first test derive from B1. In words: ITC.
On to chain 2 MKSTFKSEYPFEKRKAESERIADRFPNRIPVICEKAEKSDIPEIDKRKYLVPADLTVGQFVYVIRKAIMLPPEKAIFIFVNDTLPPTAALMSAIYQEHKDKDGFLYVTYSGENTFG [chain 2 R67A], for which the Kd turned out to be 24.8 µM.

Variants of B1 are the subject of a further test. In words: ITC. This is another data set of the same source.
For the variant chain 1 TSTEFPNDADFMEDILDET [chain 1 Y9A], the Kd is 32.7 µM. Regarding chain 1 TSTEAPNDYDFMEDILDET [chain 1 F5A], the Kd is 4.31 µM.

Values taken from publication PMC7335187 (2020).
